Test [1] has as its target carcinoembryonic antigen (CEA) (UniProt P06731). As to the kind of experiment: competition RIA, 125I-labelled A5B7 IgG1 on CEA coated beads, purified material.
For test [2] the target is unchanged. As to the kind of experiment: competition RIA on CEA coated beads, transfected CHO cell supernatant.
For test [3] the target is unchanged. As to the kind of experiment: competition RIA on CEA coated beads, transfected CHO cell supernatant; apparent A5B7 concentration divided by assembly assay result.
The target is the same in test [4]. As to the kind of experiment: competition RIA on CEA coated beads.

carcinoembryonic antigen (CEA), sequence (P06731 35-685 limits assumed): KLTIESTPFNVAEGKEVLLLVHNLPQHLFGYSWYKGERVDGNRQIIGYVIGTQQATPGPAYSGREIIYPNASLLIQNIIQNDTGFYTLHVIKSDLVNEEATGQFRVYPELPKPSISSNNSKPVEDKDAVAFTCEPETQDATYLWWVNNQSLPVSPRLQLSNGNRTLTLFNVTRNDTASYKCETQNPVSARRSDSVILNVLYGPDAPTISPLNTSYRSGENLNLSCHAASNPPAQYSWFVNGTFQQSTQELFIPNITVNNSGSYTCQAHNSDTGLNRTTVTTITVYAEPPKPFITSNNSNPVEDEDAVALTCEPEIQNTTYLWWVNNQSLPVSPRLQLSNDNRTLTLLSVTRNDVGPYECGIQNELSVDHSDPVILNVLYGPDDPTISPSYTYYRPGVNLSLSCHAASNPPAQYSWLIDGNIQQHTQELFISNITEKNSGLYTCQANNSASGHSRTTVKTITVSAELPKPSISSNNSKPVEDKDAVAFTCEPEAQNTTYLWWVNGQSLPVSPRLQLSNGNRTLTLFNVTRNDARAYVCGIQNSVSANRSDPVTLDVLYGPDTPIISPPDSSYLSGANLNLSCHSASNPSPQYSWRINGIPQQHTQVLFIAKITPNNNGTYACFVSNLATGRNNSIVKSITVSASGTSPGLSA

Regarding chimeric A5B7 IgG1 whole antibody, the % Relative Potency in test [1] and in test [2] was 100% in each case. Further, in test [3], the Specific activity was 1.17.
Turning to murine A5B7 Fab' (alkylated), in test [1], the % Relative Potency turned out to be 8%. Further, the fold reduced potency against murine A5B7 IgG in test [4] was 10 fold.
Substance murine A5B7 F(ab')2 yielded a % Relative Potency in test [1] of 97%.

Values taken from WO1992001059A1.
